B1: Merlin (Homo sapiens), P35240-3 (parent)
chain: MAGAIASRMSFSSLKRKQPKTFTVRIVTMDAEMEFNCEMKWKGKDLFDLVCRTLGLRETWFFGLQYTIKDTVAWLKMDKKVLDHDVSKEEPVTFHFLAKFYPENAEEELVQEITQHLFFLQVKKQILDEKIYCPPEASVLLASYAVQAKYGDYDPSVHKRGFLAQEELLPKRVINLYQMTPEMWEERITAWYAEHRGRARDEAEMEYLKIAQDLEMYGVNYFAIRNKKGTELLLGVDALGLHIYDPENRLTPKISFPWNEIRNISYSDKEFTIKPLDKKIDVFKFNSSKLRVNKLILQLCIGNHDLFMRRRKADSLEVQQMKAQAREEKARKQMERQRLAREKQMREEAERTRDELERRLLQMKEEATMANEALMRSEETADLLAEKAQITEEEAKLLAQKAAEAEQEMQRIKATAIRTEEEKRLMEQKVLEAEVLALKMAEESERRAKEADQLKQDLQEAREAERRAKQKLLEIATKPTYPPMNPIPAPLPPDIPSFNLIGDSLSFDFKDTDMKRLSMEIEKEKVEYMEKSKHLQEQLNELKTEIEALKLKERETALDILHNENSDRGGSSKHNTIKKPQAQGRRPICI

Columns and labels:
[1] = variants of: B1; conditions: with HGS
[2] = variants of: B1; conditions: with HGS

Variant | effect of a mutation on the interaction [1] | effect of a mutation on the interaction [2]
L535P | decreasing interaction strength | decreasing interaction strength
Q538P | decreasing interaction strength | decreasing interaction strength
L360P | decreasing interaction strength | decreasing interaction strength
L46R | decreasing interaction strength | decreasing interaction strength
